Results as given in patent US20030096757.

Test system: 19-mer (SEQ ID NO:11) cleavage domain peptide

Chain of Active MMP-9 enzyme (chain, as listed by the source): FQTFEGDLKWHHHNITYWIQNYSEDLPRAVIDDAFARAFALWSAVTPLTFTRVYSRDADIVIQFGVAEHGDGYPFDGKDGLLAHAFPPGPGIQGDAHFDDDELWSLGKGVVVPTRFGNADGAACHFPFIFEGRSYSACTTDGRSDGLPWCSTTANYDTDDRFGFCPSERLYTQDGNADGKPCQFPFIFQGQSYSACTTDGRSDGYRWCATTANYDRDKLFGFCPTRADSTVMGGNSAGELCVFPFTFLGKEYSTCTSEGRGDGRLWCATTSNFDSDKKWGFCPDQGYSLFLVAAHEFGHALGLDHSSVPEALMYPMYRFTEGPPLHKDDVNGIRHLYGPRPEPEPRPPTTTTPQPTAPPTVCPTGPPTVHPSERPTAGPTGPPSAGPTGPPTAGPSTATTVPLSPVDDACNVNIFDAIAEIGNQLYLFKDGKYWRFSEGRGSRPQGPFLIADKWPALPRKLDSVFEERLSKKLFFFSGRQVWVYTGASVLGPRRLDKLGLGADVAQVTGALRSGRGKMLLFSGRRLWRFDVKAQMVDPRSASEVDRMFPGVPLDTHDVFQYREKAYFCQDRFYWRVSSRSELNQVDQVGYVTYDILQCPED

Active MMP-9 enzyme
extended time course of MMP-9 catalyzed hydrolysis of collagen: the 19-mer (SEQ ID NO:11) effectively inhibits the MMP-9 catalyzed hydrolysis of collagen to beyond 1000 minutes
